Reference: patent publication US4496689A, “Covalently attached complex of alpha-1-proteinase inhibitor with a water soluble polymer” (Miles Laboratories, Inc., priority 1983, dated 1985)

How the values were obtained:
[1] = tested on: Antiserum (rabbit anti-human) to alpha-l-proteinase inhibitor; test: Precipitin reaction with rabbit antiserum to the unmodified protein; format: binding; conditions: for Precipitin Reaction: rabbit antiserum dil. 1:2; for Amount of protein needed to obtain a strong precipitin reaction: rabbit antiserum to the unmodified protein
Description: Antiserum (rabbit anti-human) to alpha-l-proteinase inhibitor was obtained from Miles Laboratories (Elkhart, IN).
For unmodified alpha-1-proteinase inhibitor, only 0.092 μg of protein was sufficient to obtain a strong precipitin reaction. For the 0.117 moles dextran/mole alpha-1-proteinase inhibitor conjugate, 14.5 μg of alpha-1-proteinase inhibitor was needed to elicit a similar response--a very significant increase of antigen concentration. For the 0.585 moles dextran/mole alpha-1-proteinase inhibitor conjugate increase of antigen concentration up to 29.0 μg was not sufficient to obtain a strong precipitin reaction with the antiserum.

[2] = biological target: T1, Porcine pancreatic elastase type III (Sus scrofa, UniProt P00772); test: Elastase inhibitory capacity (EIC) assay with chromogenic substrate SA3 pNA; format: biochemical; conditions: for % EIC Recovered: recovery across covalent coupling
T1 construct: purchased Sigma Chemicals Co. (St. Louis, MO)
T1 sequence (P00772 27-266): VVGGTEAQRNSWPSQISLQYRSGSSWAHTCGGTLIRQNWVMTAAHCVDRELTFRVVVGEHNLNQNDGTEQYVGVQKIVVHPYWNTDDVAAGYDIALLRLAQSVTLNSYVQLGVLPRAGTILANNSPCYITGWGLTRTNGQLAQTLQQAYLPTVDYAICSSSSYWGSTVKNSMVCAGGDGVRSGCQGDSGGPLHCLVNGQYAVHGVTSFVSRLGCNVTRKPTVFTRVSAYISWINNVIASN
From the text: Porcine pancreatic elastase type III and chromogenic substrate N-succinyl-L-anlanyl-L-alanyl-L-alanyl-p-nitroanilide (SA3 pNA) were obtained from Sigma Chemicals Co. (St. Louis, MO). Hydrolysis of the chromogenic substrate by the elastase liberates p-nitroaniline which gives a yellow color whose absorbance is measurable spectrophotometrically (Model 1084 UV Spectrophotometer, Gilford Instruments, Oberlin, OH) at 405 nm.
Comparisons of the linear changes of absorbance with time both in the presence and in the absence of sample alpha-l-proteinase inhibitor and of sample alpha-l-proteinase inhibitor-dextran covalent complex were made. The amount of inhibitor was then calculated based on the known molecular weights of the elastase and alpha-l-proteinase inhibitor, on the known 1:1 stoichrometry, and on the known amount of elastase used. A pool of normal human plasma (>1000 donors) was used as the standard and assigned a value of 1 μ/ml of α1 PI.

[3] = biological target: T1, Porcine pancreatic elastase type III; test: Association rate constant (kassoc) between enzyme and inhibitor; format: biochemical; conditions: for t0.5 (half life of the enzyme-inhibitor association reaction) / kassoc, rate constant for the association between the enzyme and the inhibitor: equimolar enzyme and inhibitor, 3.37×10^-7, 37° C., pH 7.4; for kassoc, rate constant for the association between the enzyme and the inhibitor: calculated by equation (4); for Initial Reac. Rate: 37° C.
Description: Association constants (kassoc) between the enzyme (E) and the inhibitor (I) were determined as follows: 25 μl each of equimolar amounts of the enzyme and the inhibitor were incubated at 37° C. with 1950 μl of buffer (0.05M TRIS, 0.15M NaCl, pH 7.4) (TRIS® is tris(hydroxymethyl)amino methane, supplied by Sigma, St. Louis, Mo.) to obtain a resultant concentration of 3.37×10^-7. At various times, a 200 μl aliquot of the enzyme-inhibitor solution was added to 780 μl buffer and 20 μl substrate (SA3 pNA) (60 mM) and the hydrolysis rate followed in the temperature controlled (37° C.) cuvette with a recorder (Model 6051, Gilford Instruments, Oberlin, Ohio) attachment. During hydrolysis no further enzyme-inhibitor association was assumed (5 fold dilution compared to preincubation) and the initial reaction rate (v) was indicative of the free enzyme (E) present at the end of the respective preincubation times. Enzyme inhibitor association is represented as: [formula] for kdissoc .perspectiveto.0 and equimolar concentrations of E and I we get
With initial conditions t=0, E=Eo (all free enzyme) equation (2) integrates to
By defining half life of the reaction t0.5 to be at E=0.5Eo we get
The initial reaction rate (Δ absorbance/5 minutes) depicts the hydrolysis rate of the substrate by the free enzyme present following the respective preincubation time. Initial reaction rate, in the absence of the inhibitor, was determined and the time required for this rate to decrease to half of its original value (t0.5) was calculated. Equation (4) was subsequently used to calculate kassoc for each of the 3 cases.

[4] = biological target: T2, elastase (Sus scrofa, UniProt P00772); test: pH stability (pH 3.0), recovery of EIC; format: physicochemical, porcine; conditions: pH 3.0 for 24 hours at +5° C.; for Recovery of EIC as % of Control After Adjustment to pH 7.4, Immediate: then back to pH 7.40, assayed immediately; for Recovery of EIC as % of Control After Adjustment to pH 7.4, Incubation Time 24 hrs. (5° C.): back to pH 7.40, further 24 hrs. at 5° C.
T2 construct: purchased Sigma Chemicals Co. (St. Louis, MO)
T2 sequence (P00772 27-266): as above
Description: In order to investigate the pH stability of these preparations, experimental samples were adjusted to pH 3.0 with controls at pH 7.40 and incubated for 24 hours at +5° C. Following this, pH was adjusted back up to 7.40 for the experimental samples and EIC assays carried out immediately. Samples were further incubated for 24 hours at +5° C. and reassayed.

[5] = tested on: porcine elastase; conditions: each at 1.4×10^-8 M; Beatty et al, J. Biol. Chem., 255, 3931 (1980); cited from earlier work
[6] = biological target: T2, elastase; test: Oxidative inactivation by H2O2, recovery of EIC; format: physicochemical, porcine; conditions: 0-28 mM H2O2, 37° C., 1 hour, pH 7.4 (FIG. 2)
Description: Hydrogen peroxide (30% solution, Sigma Chemicals) was used as the oxidation agent to investigate the effect of 0-28 mM H2 O2 on the recovery of elastase inhibitory capacity (EIC) following incubation at 37° C. for 1 hour.
FIG. 2 (oxidation at pH 7.4) depicts the effects of various concentrations of H2 O2 on the samples. […] It is to be understood that any antioxidant enzyme may be used, e.g. catalase or an equivalent enzyme such as superoxide dismutase.

[7] = biological target: T2, elastase; test: Heat stability at 60° C., EIC readout; format: physicochemical, porcine; conditions: within 60 minutes (FIG. 1)
Description: Alpha-1-proteinase inhibitor and its dextran conjugates, with and without added beef liver catalase as antioxidant, were heated in closed tubes at 60±0.2° C. The tubes were preheated and due to large mass difference the samples reached the bath temperature in less than 60 seconds. At designated time intervals samples were withdrawn and instantaneously cooled down (by ice bath) to room temperature prior to assay.
A significant difference here is observed between the native protein and its conjugates.

[8] = bovine liver catalase modified with methoxypolyethylene glycol; Abuchowski et al; cited from earlier work

## 5: alpha-1-proteinase inhibitor-dextran complex, dextran mol. wt. 10,300, 20 mg inhibitor per gram of dextran, ratio 0.585 [Example 5]
[1]; antigen conc. 1.95 μg
  Precipitin Reaction: Weak
[1]; antigen conc. 29.0 μg
  Precipitin Reaction: Weak
[1]
  Amount of protein needed to obtain a strong precipitin reaction: > 29.0 µg
[2]
  % EIC Recovered: 18.4%
[3]
  t0.5 (half life of the enzyme-inhibitor association reaction): 34.67 s
  kassoc, rate constant for the association between the enzyme and the inhibitor: 85600 M⁻¹ s⁻¹
[3]; preincubation time 25 secs.
  Initial Reac. Rate: 0.495 Δ absorbance/5 minutes
[3]; preincubation time 65 secs.
  Initial Reac. Rate: 0.285 Δ absorbance/5 minutes
[3]; preincubation time 100 secs.
  Initial Reac. Rate: 0.205 Δ absorbance/5 minutes
[3]; preincubation time 145 secs.
  Initial Reac. Rate: 0.135 Δ absorbance/5 minutes
[4]
  Recovery of EIC as % of Control After Adjustment to pH 7.4, Immediate: 55%

## 4: alpha-1-proteinase inhibitor-dextran complex, dextran mol. wt. 10,300, 100 mg inhibitor per gram of dextran, ratio 0.117 [Example 4]
[1]; antigen conc. 14.5 μg
  Precipitin Reaction: Strong
[1]
  Amount of protein needed to obtain a strong precipitin reaction: 14.5 µg
[2]
  % EIC Recovered: 28.8%
[3]
  t0.5 (half life of the enzyme-inhibitor association reaction): 21.49 s
  kassoc, rate constant for the association between the enzyme and the inhibitor: 141000 M⁻¹ s⁻¹
[3]; preincubation time 20 secs.
  Initial Reac. Rate: 0.450 Δ absorbance/5 minutes
[3]; preincubation time 45 secs.
  Initial Reac. Rate: 0.285 Δ absorbance/5 minutes
[3]; preincubation time 75 secs.
  Initial Reac. Rate: 0.195 Δ absorbance/5 minutes
[3]; preincubation time 120 secs.
  Initial Reac. Rate: 0.130 Δ absorbance/5 minutes
[4]
  Recovery of EIC as % of Control After Adjustment to pH 7.4, Incubation Time 24 hrs. (5° C.): 81%
  Recovery of EIC as % of Control After Adjustment to pH 7.4, Immediate: 68%

## Native α1 PI: human plasma glycoprotein alpha-1-proteinase inhibitor, molecular weight 53,000, purified from Cohn Fraction IV-1
[1]; antigen conc. 0.092 μg
  Precipitin Reaction: Strong
[1]
  Amount of protein needed to obtain a strong precipitin reaction: 0.092 µg
[2]; purified from Cohn Fraction IV-1
  Elastase inhibitory capacity/mg total protein: 1.5
[5]
  kassoc: 1×10^5 M^-1 sec.^-1
[6]
  Effect of H2O2 oxidation on EIC: significant progressive loss of EIC
[3]
  kassoc, rate constant for the association between the enzyme and the inhibitor: 185000 M⁻¹ s⁻¹
[3]; listed as native protein
  kassoc, rate constant for the association between the enzyme and the inhibitor: 185000 M⁻¹ s⁻¹
[3]; preincubation time 15 secs.
  Initial Reac. Rate: 0.460 Δ absorbance/5 minutes
[3]; preincubation time 30 secs.
  Initial Reac. Rate: 0.310 Δ absorbance/5 minutes
[3]; preincubation time 60 secs.
  Initial Reac. Rate: 0.173 Δ absorbance/5 minutes
[3]; preincubation time 65 secs.
  Initial Reac. Rate: 0.170 Δ absorbance/5 minutes
[3]; preincubation time 90 secs.
  Initial Reac. Rate: 0.128 Δ absorbance/5 minutes
[4]
  Recovery of EIC as % of Control After Adjustment to pH 7.4, Incubation Time 24 hrs. (5° C.): 66%
[7]
  Loss of initial activity (EIC) on heating: > 90%

B1: PEG-1900-catalase: bovine liver catalase covalently modified with methoxypolyethylene glycol of 1900 daltons using cyanuric chloride (Abuchowski et al) (conjugate, UniProt P00432 2-527, looked up)
Catalase: ADNRDPASDQMKHWKEQRAAQKPDVLTTGGGNPVGDKLNSLTVGPRGPLLVQDVVFTDEMAHFDRERIPERVVHAKGAGAFGYFEVTHDITRYSKAKVFEHIGKRTPIAVRFSTVAGESGSADTVRDPRGFAVKFYTEDGNWDLVGNNTPIFFIRDALLFPSFIHSQKRNPQTHLKDPDMVWDFWSLRPESLHQVSFLFSDRGIPDGHRHMNGYGSHTFKLVNANGEAVYCKFHYKTDQGIKNLSVEDAARLAHEDPDYGLRDLFNAIATGNYPSWTLYIQVMTFSEAEIFPFNPFDLTKVWPHGDYPLIPVGKLVLNRNPVNYFAEVEQLAFDPSNMPPGIEPSPDKMLQGRLFAYPDTHRHRLGPNYLQIPVNCPYRARVANYQRDGPMCMMDNQGGAPNYYPNSFSAPEHQPSALEHRTHFSGDVQRFNSANDDNVTQVRTFYLKVLNEEQRKRLCENIAGHLKDAQLFIQKKAVKNFSDVHPEYGSRIQALLDKYNEEKPKNAVHTYVQHGSHLSAREKANL
modifications: mPEG 1900
[8]
  Retained enzymatic activity: 93%

B2: PEG-5000-catalase: bovine liver catalase covalently modified with methoxypolyethylene glycol PEG-5000 using cyanuric chloride (Abuchowski et al) (conjugate, UniProt P00432 2-527, looked up)
Catalase: ADNRDPASDQMKHWKEQRAAQKPDVLTTGGGNPVGDKLNSLTVGPRGPLLVQDVVFTDEMAHFDRERIPERVVHAKGAGAFGYFEVTHDITRYSKAKVFEHIGKRTPIAVRFSTVAGESGSADTVRDPRGFAVKFYTEDGNWDLVGNNTPIFFIRDALLFPSFIHSQKRNPQTHLKDPDMVWDFWSLRPESLHQVSFLFSDRGIPDGHRHMNGYGSHTFKLVNANGEAVYCKFHYKTDQGIKNLSVEDAARLAHEDPDYGLRDLFNAIATGNYPSWTLYIQVMTFSEAEIFPFNPFDLTKVWPHGDYPLIPVGKLVLNRNPVNYFAEVEQLAFDPSNMPPGIEPSPDKMLQGRLFAYPDTHRHRLGPNYLQIPVNCPYRARVANYQRDGPMCMMDNQGGAPNYYPNSFSAPEHQPSALEHRTHFSGDVQRFNSANDDNVTQVRTFYLKVLNEEQRKRLCENIAGHLKDAQLFIQKKAVKNFSDVHPEYGSRIQALLDKYNEEKPKNAVHTYVQHGSHLSAREKANL
modifications: mPEG 5000
[8]
  Retained enzymatic activity: 95%
